From patent US10801046B2, “Methods and materials for biosynthesizing multifunctional, multivariate molecules via carbon chain modification” (INVISTA NORTH AMERICA S.A.R.L., priority 2016, dated 2020)

Key:
[1] = Carboxylate reductase activity, 7-hydroxyheptanoate to 7-hydroxyheptanal, NADPH consumption at 340 nm; format: biochemical; conditions: enhanced by gene product of sfp, 20 min, against empty vector control, FIG. 44
Method: A sequence encoding a His-tag was added to the genes from Mycobacterium marinum, Mycobacterium smegmatis, Segniliparus rugosus, Mycobacterium smegmatis, Mycobacterium massiliense, and Segniliparus rotundus that encode the carboxylate reductases of SEQ ID NOs: 25 (GenBank Accession No. ACC40567.1), 27 (GenBank Accession No. ABK75684.1), 29 (GenBank Accession No. ABK71854.1), 31 (GenBank Accession No. EFV11917.1), 37 (GenBank Accession No. EIV11143.1), and 38 (GenBank Accession No. ADG98140.1) such that N-terminal HIS tagged carboxylate reductases could be produced. Each of the modified genes was cloned into a pET Duet expression vector alongside a sfp gene encoding a His-tagged phosphopantetheine transferase from Bacillus subtilis, both under control of the T7 promoter.
Each expression vector was transformed into a BL21[DE3] E. coli host and the resulting recombinant E. coli strains were cultivated at 37° C. in a 250 mL shake flask culture containing 50 mL LB media and antibiotic selection pressure, with shaking at 230 rpm. Each culture was induced overnight at 37° C. using an auto-induction media.
The pellet from each induced shake flask culture was harvested via centrifugation. Each pellet was resuspended and lysed via sonication. The cell debris was separated from the supernatant via centrifugation. The carboxylate reductases and phosphopantetheine transferase were purified from the supernatant using Ni-affinity chromatography, diluted 10-fold into 50 mM HEPES buffer (pH=7.5) and concentrated via ultrafiltration.
Enzyme activity (i.e., 7-hydroxyheptanoate to 7-hydroxyheptanal) assays were performed in triplicate in a buffer composed of a final concentration of 50 mM HEPES buffer (pH=7.5), 2 mM […], 10 mM MgCl2, 1 mM ATP, and 1 mM NADPH. Each enzyme activity assay reaction was initiated by adding purified carboxylate reductase and phosphopantetheine transferase or the empty vector control to the assay buffer containing the 7-hydroxyheptanoate and then incubated at room temperature for 20 min. The consumption of NADPH was monitored by absorbance at 340 nm.

[2] = Carboxylate reductase activity, heptanedioate to 7-oxoheptanoate, NADPH consumption at 340 nm; format: biochemical; conditions: enhanced by gene product of sfp, 2 mM substrate, 20 min, against empty vector control, FIG. 43
Method: A sequence encoding a HIS-tag was added to the genes from Segniliparus rugosus and Segniliparus rotundus that encode the carboxylate reductases of SEQ ID NOs: 31 (GenBank Accession No. EFV11917.1) and 38 (GenBank Accession No. ADG98140.1), respectively, such that N-terminal HIS tagged carboxylate reductases could be produced. Each of the modified genes was cloned into a pET Duet expression vector along with a sfp gene encoding a HIS-tagged phosphopantetheine transferase from Bacillus subtilis, both under the T7 promoter. Each expression vector was transformed into a BL21[DE3] E. coli host and the resulting recombinant E. coli strains were cultivated at 37° C. in a 250 mL shake flask culture containing 50 mL LB media and antibiotic selection pressure, with shaking at 230 rpm. Each culture was induced overnight at 37° C. using an auto-induction media.
The pellet from each induced shake flask culture was harvested via centrifugation. Each pellet was resuspended and lysed via sonication, and the cell debris was separated from the supernatant via centrifugation. […]
Enzyme activity assays (i.e., from heptanedioate to 7-oxoheptanoate) were performed in triplicate in a buffer composed of a final concentration of 50 mM HEPES buffer (pH=7.5), 2 mM heptanedioate, 10 mM MgCl2, 1 mM ATP, and 1 mM NADPH. […] The consumption of NADPH was monitored by absorbance at 340 nm.

B1: SEQ ID NO: 31: Segniliparus rugosus carboxylate reductase (protein)
chain: MGDGEERAKRFFQRIGELSATDPQFAAAAPDPAVVEAVSDPSLSFTRYLDTLMRGYAERPALAHRVGAGYETISYGELWARVGAIAAAWQADGLAPGDFVATVGFTSPDYVAVDLAAARSGLVSVPLQAGASLAQLVGILEETEPKVLAASASSLEGAVACALAAPSVQRLVVFDLRGPDASESAADERRGALADAEEQLARAGRAVVVETLADLAARGEALPEAPLFEPAEGEDPLALLIYTSGSTGAPKGAMYSQRLVSQLWGRTPVVPGMPNISLHYMPLSHSYGRAVLAGALSAGGTAHFTANSDLSTLFEDIALARPTFLALVPRVCEMLFQESQRGQDVAELRERVLGGRLLVAVCGSAPLSPEMRAFMEEVLGFPLLDGYGSTEALGVMRNGIIQRPPVIDYKLVDVPELGYRTTDKPYPRGELCIRSTSLISGYYKRPEITAEVFDAQGYYKTGDVMAEIAPDHLVYVDRSKNVLKLSQGEFVAVAKLEAAYGTSPYVKQIFVYGNSERSFLLAVVVPNAEVLGARDQEEAKPLIAASLQKIAKEAGLQSYEVPRDFLIETEPFTTQNGLLSEVGKLLRPKLKARYGEALEARYDEIAHGQADELRALRDGAGQRPVVETVVRAAVAISGSEGAEVGPEANFADLGGDSLSALSLANLLHDVFEVEVPVRIIIGPTASLAGIAKHIEAERAGASAPTAASVHGAGATRIRASELTLEKFLPEDLLAAAKGLPAADQVRTVLLTGANGWLGRFLALEQLERLARSGQDGGKLICLVRGKDAAAARRRIEETLGTDPALAARFAELAEGRLEVVPGDVGEPKFGLDDAAWDRLAEEVDVIVHPAALVNHVLPYHQLFGPNVVGTAEIIRLAITAKRKPVTYLSTVAVAAGVEPSSFEEDGDIRAVVPERPLGDGYANGYGNSKWAGEVLLREAHELVGLPVAVFRSDMILAHTRYTGQLNVPDQFTRLVLSLLATGIAPKSFYQQGAAGERQRAHYDGIPVDFTAEAITTLGAEPSWFDGGAGFRSFDVFNPHHDGVGLDEFVDWLIEAGHPISRIDDHKEWFARFETAVRGLPEAQRQHSLLPLLRAYSFPHPPVDGSVYPTGKFQGAVKAAQVGSDHDVPHLGKALIVKYADDLKALGLL
modifications: Segniliparus rugosus ATCC BAA-974
notes: Segniliparus rugosus carboxylate reductase
acceptance of 7-hydroxyheptanoate as substrate, forming 7-hydroxyheptanal [1]: accepted 7-hydroxyheptanoate as substrate
acceptance of heptanedioate as substrate, forming 7-oxoheptanoate [2]: accepted heptanedioate as substrate
